Results published in US10087260B2, “Anti-HER2 antibody and conjugate thereof” (REMEGEN, LTD., priority 2013, dated 2018).
Entries after “also recorded” stand apart in the source; their conditions may differ. Square brackets hold non-standard residues; d marks the D form. Peptide text beside a SMILES is read from it. * marks the point of attachment. Dolaproine = CO[C@@H]([C@@H]1CCCN1)[C@@H](C)C(=O)O; Dil = CC[C@H](C)[C@H](NC)[C@@H](CC(=O)O)OC; X1 = C[C@@H](N*)[C@@H](O)c1ccccc1; NMeV = CN[C@H](C(=O)O)C(C)C

Assays:
[1] = Toxicity in SD rat, single intravenous infusion; format: in vivo
Protocol: SPF-level SD rats (the certificate No. is SCXK (jing)2012-0001) purchased from Beijing Vital River Laboratories Animal Technology Co, Ltd. were randomly divided into 7 groups according to gender, in which there were 10 rats in a group with half male and half female. These 7 groups included physiological saline negative control group, 0.48 mg/kg MMAE control group, 40 mg/kg RC48 naked antibody control group and series of RC48-vc-MMAE dose groups, in which the rats were dosed via tail vein infusion, and the experimental observation period was 21 days. The body weights were weighted at D1 (pre-dosing), D8, D15 and D22. After the observation period, the animals were euthanized and performed a general pathological anatomical observation, and the abnormal tissues or organs observed by the general anatomical observation were subjected to a histological examination.

[2] = test system: BT-474/L1.9 human breast cancer; test: Herceptin- and Lapatinib-resistant BT-474/L1.9 nude mouse subcutaneous transplantation tumor model; format: in vivo
Protocol: (§1) SPF-level BALB/c nude mice were inoculated subcutaneously with a certain amount of BT-474/L1.9 tumor cells, and after the tumor growing to 100-200 mm3, the animals were randomly grouped. […] The tumor volume was measured 2 times a week. […] The data were recorded. The tumor volume and the tumor-inhibition rate of each tumor-bearing mouse were calculated at different observation time points.

[3] = test system: NCI-N87 human gastric cancer; test: NCI-N87 human gastric cancer nude mouse subcutaneous transplantation tumor model; format: in vivo; conditions: 200 mg/kg, dosing once per week, for 21 days
Protocol: [Worded in the source for another cell line; this cell line is reported under the same test.] as §1

[4] = test system: recurrent or refractory Hodgkin's lymphoma; conditions: cited from earlier work
[5] = test system: chronic non-Hodgkin's lymphocytoma (NHL); conditions: cited from earlier work
[6] = test system: HER2+ cells SK-BR-3, BT474; test: Flow cytometry binding with HER2 positive breast cancer cells; format: cell-based, human; conditions: 6 μg antibody, SK-BR-3 and BT474
Protocol: (§2) After 2 times of thoroughly washing with 4 ml cold PBS, the antibodies binding with the cell surface were detected by R-PE-coupled goat anti-human IgG Fc specific second antibody (15 μl, 25 μg/mL), and then analyzed by flow cytometer (BD FACSCalibur).

[7] = molecular target: T1, HER2 on BT474 cell surface (Homo sapiens, UniProt P04626); test: Flow cytometry binding curve with HER2 on BT474 cell surface; conditions: BT474 cells, antibody titration, read-out: Binding affinity Kd
T1 construct: HER2 which was endogenously expressed in human breast cancer cells; endogenous in cells; host or cells: BT474 human breast cancer cells
Protocol: as §2

HER3 = HER3 (Homo sapiens, UniProt P21860); test: Antigen binding specificity ELISA; conditions: 20 ng antigen per well
Protocol: [Worded in the source for another target; used here, by the source, with some conditions changed.] (§3) HER2-ECD as described above was used as the antigen for immunizing the mouse and monoclonal antibody generation. Immunization, hybridoma cells fusion and primary screen were conducted according to standard procedures (reference: WHO Technical Report Series, No. 822, 1992 Annex 3). Four Balb/c mice (commercially obtained from Shanghai Slac Laboratory Animal Co. Ltd.) were immunized with equal volume of well-blended 0.25 ml HER2-ECD protein (50-100 μg) and 0.25 ml Freund's complete adjuvant (Difco Lab). Two weeks later, the second injection was carried out with Freund's incomplete adjuvant (Difco Lab) in which the amount of antigen was 25-50 μg/0.5 ml/mouse. Three weeks later, the third injection was carried out in which the amount was the same with that in the second injection. Ten days after the third injection the blood was drawn. The mice serum were detected by enzyme-linked immunosorbent assay (ELISA), and the spleens of the two mice with highest anti-HER2 antibody titer in serum were taken, which were then fused with the myeloma cell P3X63Ag8 (ATCC CRL-1580). The fused cells were diluted onto ten 96-well plates, and the preliminary screen was carried out through ELISA method depending on the binding capacity with HER2-ECD. In a classical ELISA assay, the Nunc Maxisord 96-well plate was coated with HER2-ECD (0.2-1 μg/ml), and then incubated with gradient diluted mouse serum or hybridoma supernatant (100 μL). Murine-derived anti-HER2 antibody was detected by the goat F(ab′)2 anti-murine IgG Fc specific second antibody coupled with horse radish peroxidase (Invitrogen Inc.).

HER4 = HER4 (Homo sapiens, UniProt Q15303); test: Antigen binding specificity ELISA; conditions: 20 ng antigen per well
Sequence of HER4 (Q15303 26-1308, species assumed): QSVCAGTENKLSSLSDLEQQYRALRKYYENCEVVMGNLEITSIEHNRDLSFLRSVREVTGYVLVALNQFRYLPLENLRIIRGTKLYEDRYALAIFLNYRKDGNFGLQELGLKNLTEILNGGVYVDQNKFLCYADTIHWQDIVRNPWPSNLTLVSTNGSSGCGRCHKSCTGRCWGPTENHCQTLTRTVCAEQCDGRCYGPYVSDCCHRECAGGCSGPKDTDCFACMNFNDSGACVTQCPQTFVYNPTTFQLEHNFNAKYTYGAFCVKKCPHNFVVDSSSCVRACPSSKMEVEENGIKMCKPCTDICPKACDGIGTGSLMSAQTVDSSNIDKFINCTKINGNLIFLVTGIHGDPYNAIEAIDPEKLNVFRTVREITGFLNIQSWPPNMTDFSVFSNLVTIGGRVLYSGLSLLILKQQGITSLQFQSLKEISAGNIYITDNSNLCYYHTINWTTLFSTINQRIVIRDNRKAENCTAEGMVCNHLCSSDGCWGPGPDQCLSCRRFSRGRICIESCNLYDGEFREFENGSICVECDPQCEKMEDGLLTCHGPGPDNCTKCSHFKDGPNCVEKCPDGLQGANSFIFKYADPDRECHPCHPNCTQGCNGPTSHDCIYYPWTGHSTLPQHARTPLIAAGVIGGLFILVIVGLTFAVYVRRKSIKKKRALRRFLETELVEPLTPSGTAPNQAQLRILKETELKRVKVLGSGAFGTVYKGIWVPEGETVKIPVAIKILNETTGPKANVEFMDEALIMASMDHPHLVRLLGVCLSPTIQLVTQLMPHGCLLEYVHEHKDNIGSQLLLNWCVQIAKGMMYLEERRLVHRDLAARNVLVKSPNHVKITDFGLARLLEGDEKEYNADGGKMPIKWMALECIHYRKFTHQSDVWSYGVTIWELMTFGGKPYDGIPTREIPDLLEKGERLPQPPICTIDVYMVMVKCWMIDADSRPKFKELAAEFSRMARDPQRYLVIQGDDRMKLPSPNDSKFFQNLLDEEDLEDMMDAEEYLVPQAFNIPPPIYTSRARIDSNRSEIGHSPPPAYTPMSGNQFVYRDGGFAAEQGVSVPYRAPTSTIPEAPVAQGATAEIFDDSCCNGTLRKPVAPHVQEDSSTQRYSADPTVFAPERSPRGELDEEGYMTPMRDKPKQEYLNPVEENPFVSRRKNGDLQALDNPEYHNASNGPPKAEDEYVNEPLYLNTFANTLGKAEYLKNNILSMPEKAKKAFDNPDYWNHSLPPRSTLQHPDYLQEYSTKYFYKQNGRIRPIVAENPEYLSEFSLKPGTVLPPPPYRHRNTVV
Protocol: [Worded in the source for another target; used here, by the source, with some conditions changed.] as §3

HER2 = HER2 (Homo sapiens, UniProt P04626); test: Antigen binding specificity ELISA; conditions: 20 ng antigen per well
Protocol: as §3

EGFR = EGFR (Homo sapiens, UniProt P00533); test: Antigen binding specificity ELISA; conditions: 20 ng antigen per well
Protocol: [Worded in the source for another target; used here, by the source, with some conditions changed.] as §3

[8] = test system: BT474 human breast cancer transplantation tumor; test: Tumor inhibition of RC48, BT474 human breast cancer transplantation tumor model; format: in vivo, nude mouse; conditions: 10 mg/kg, administered three times
Excerpt: Human breast cancer BT474 nude mouse transplantation tumor model was established by inoculating BT474 cells into nude mouse subcutaneously. After growing continuously in vivo for 3 generations, the tumor tissue which grew vigorously was taken and cut into about 1.5 mm3, and inoculated subcutaneously to right-side armpit of nude mouse (provided by Shanghai Slac Laboratory Animal Co. Ltd., with the certificate No. 2007000540582 and license No. SCXK(hu)2012-0002) under sterile conditions. The diameter of the nude mouse transplantation tumor was measured by vernier caliper. The animals were grouped randomly until the tumor grew up to 100˜300 mm3.

HER2-ECD = molecular target: T2, HER2-ECD (Homo sapiens, UniProt P04626); test: ELISA HER2-ECD binding affinity constant of antibodies; conditions: ELISA on coated HER2-ECD; average of 3 independent assays
T2 construct: made in house; host or cells: HEK293
Protocol: as §3, with “The fused cells were diluted onto ten 96-well plates, and the preliminary screen was carried out through ELISA method depending on the binding capacity with HER2-ECD. In a classical ELISA assay, the Nunc Maxisord 96-well plate was coated with HER2-ECD (0.2-1 μg/ml), and then incubated with gradient diluted mouse serum or hybridoma supernatant (100 μL).” left out

[9] = test system: BT474 human breast cancer tumor; format: in vivo; conditions: 10 mg/kg, three administrations, 37 days after dosing
Protocol: Five millions of BT474 cells were suspended in PBS, and inoculated to the armpit of BALB/c nude mouse (provided by Shanghai Slac Laboratory Animal Co. Ltd., with the certificate No. 2007000540582 and license No. SCXK(hu)2012-0002). After the tumor was formed, the tumor tissue which grew vigorously was taken and cut into about 1.5 mm^3, and inoculated subcutaneously to the right-side armpit of nude mouse under sterile conditions. The diameter of the nude mouse transplantation tumor was measured by vernier caliper. The animals were grouped randomly until the tumor grew up to 100˜300 mm^3.

MDA-MBA468 = test: Flow cytometry binding with HER2 negative cells; format: cell-based, human; conditions: 6 μg antibody
Protocol: as §2

CC[C@H](C)[C@@H]([C@@H](CC(=O)N1CCC[C@H]1[C@H](OC)[C@@H](C)C(=O)N[C@H](C)[C@@H](O)c1ccccc1)OC)N(C)C(=O)[C@@H](NC(=O)[C@@H](NC)C(C)C)C(C)C [MMAE, Monomethyl auristatin E, reference compound] (H-[NMeV]V[Dil][Dolaproine]-X1)
animals found dead during the experiment ([1]; 0.48 mg/kg MMAE control group, single tail vein infusion, 21 days): 9/10

T-DM1
tumor-inhibition rate ([2]; 5 mg/kg, once per week, totally 2 times): 58%

CS(=O)(=O)CCNCc1ccc(-c2ccc3ncnc(Nc4ccc(OCc5cccc(F)c5)c(Cl)c4)c3c2)o1 [Lapatinib]
tumor-inhibition rate [3]: 78% | tumor-inhibition rate ([2]; 200 mg/kg, dosing everyday): 45%

brentuximab vedotin
patients achieving partial response ([4]; Phase II, 102 patients): 40% | overall response rate ([4]; median treatment course 6.7 months): 73% | complete response rate ([4]; median treatment course 20.5 months): 34%

Rituxan: monoclonal antibody drug against lymphocytoma such as NHL
total response rate ([5]; Phase II clinical study, NHL, used alone): 6% | effective rate ([5]; in combination with standard chemotherapy, chronic lymphocytoma): up to 90%

B1: RC48: humanized anti-HER2 antibody RC48, derived from mRC48 antibody by humanized engineering; human IgG1κ (antibody, chains of the INN, looked up, V domains shown)
VH: EVQLVQSGAEVKKPGATVKISCKVSGYTFTDYYIHWVQQAPGKGLEWMGRVNPDHGDSYYNQKFKDKATITADKSTDTAYMELSSLRSEDTAVYFCARNYLFDHWGQGTLVTVSS
VL: DIQMTQSPSSVSASVGDRVTITCKASQDVGTAVAWYQQKPGKAPKLLIYWASIRHTGVPSRFSGSGSGTDFTLTISSLQPEDFATYYCHQFATYTFGGGTKVEIK
binding with HER2 positive cells [6]: strong binding; also recorded: higher binding affinity | Kd [7]: 4 nM | binding capacity with HER3 (HER3): nearly had no binding capacity; also recorded: not with EGFR, HER3 and HER4 | binding capacity with HER4 (HER4): nearly had no binding capacity; also recorded: not with EGFR, HER3 and HER4 | binding capacity with HER2 (HER2): strong binding capacity; also recorded: only shows specific binding affinity with HER2 | binding capacity with EGFR (EGFR): nearly had no binding capacity; also recorded: not with EGFR, HER3 and HER4 | toxicity response symptom ([1]; 40 mg/kg, single intravenous infusion): no evident toxicity response symptom | maximal tolerant dose of rat ([1]; single intravenous infusion): ≥ 40 mg/kg | tumor-inhibitory effect on BT474 tumors [8]: inhibited; also recorded: significantly better tumor-inhibitory effect | Kd (HER2-ECD): 0.044 nM | tumor volume as % of the control group [9]: 83% | binding with HER2 negative cells (MDA-MBA468): no binding
